Laboratory results published in article PMC11208452.

Target: T1, BMAL2 (recombinant human, Novus H00056938-Q01) (Homo sapiens) (UniProt Q8WYA1)
T1 sequence (Q8WYA1 whole entry, looked up): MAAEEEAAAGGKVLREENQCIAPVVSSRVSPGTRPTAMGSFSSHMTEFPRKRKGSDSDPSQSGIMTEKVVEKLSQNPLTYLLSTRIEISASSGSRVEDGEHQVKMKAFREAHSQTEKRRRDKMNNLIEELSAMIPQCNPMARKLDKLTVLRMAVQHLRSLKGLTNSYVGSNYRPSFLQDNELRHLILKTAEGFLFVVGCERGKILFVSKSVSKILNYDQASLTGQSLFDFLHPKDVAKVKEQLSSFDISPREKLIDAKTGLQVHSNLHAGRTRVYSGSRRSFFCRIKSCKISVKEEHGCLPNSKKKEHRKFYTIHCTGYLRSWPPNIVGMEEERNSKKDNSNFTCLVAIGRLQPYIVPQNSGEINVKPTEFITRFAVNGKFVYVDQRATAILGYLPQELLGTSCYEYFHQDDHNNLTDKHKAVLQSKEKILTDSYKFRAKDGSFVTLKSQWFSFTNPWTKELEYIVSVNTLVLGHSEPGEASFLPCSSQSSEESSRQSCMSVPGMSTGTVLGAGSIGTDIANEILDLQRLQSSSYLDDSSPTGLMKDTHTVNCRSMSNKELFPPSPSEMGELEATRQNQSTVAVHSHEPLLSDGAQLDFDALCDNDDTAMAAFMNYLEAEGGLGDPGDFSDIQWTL
Assay: SPR
Settings: BMAL2 immobilized; oligo analyte 50, 100, 200 nM; global 1:1 fit; OpenSPR (text also says BIAcore), 20 C, 30 ul/min; running buffer, salt and pH not stated (immobilization in 10 mM sodium acetate pH 5.5)

GGCGCAACGCTGAGCAGCT (double strand) [human PD-L1 promoter predicted BMAL2 binding site oligo]
Kd: 0.209 µM
